Experimental data as given in article PMC9482650, “Quantitative fragmentomics allow affinity mapping of interactomes” (Nature Communications, 2022).

What was measured:
Test in all cases: holdup assay
Parameters in all cases: key: below the threshold = too weak to quantify, mostly under pKd 3.1 to 4
APBA2_1, Q99767 = molecular target: T1, APBA2_1, Q99767
T1 sequence (Q99767 563-664, limits assumed, looked up): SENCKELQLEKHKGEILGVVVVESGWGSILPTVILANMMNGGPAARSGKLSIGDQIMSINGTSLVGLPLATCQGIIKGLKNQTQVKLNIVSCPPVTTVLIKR

LNX1_1, Q8TBB1 = molecular target: LNX1_1, Q8TBB1
LNX1_1, Q8TBB1, sequence (Q8TBB1 261-371): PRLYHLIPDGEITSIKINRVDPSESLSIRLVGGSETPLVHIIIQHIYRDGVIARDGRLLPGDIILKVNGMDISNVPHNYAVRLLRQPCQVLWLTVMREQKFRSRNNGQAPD

FRMPD3, Q5JV73 = molecular target: FRMPD3, Q5JV73
FRMPD3, Q5JV73, sequence (Q5JV73 12-100): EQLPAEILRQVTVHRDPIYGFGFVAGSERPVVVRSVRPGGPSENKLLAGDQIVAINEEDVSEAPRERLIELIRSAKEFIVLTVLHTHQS

NHERF2_2, Q15599 = molecular target: NHERF2_2, Q15599
NHERF2_2, Q15599, sequence (Q15599 142-238): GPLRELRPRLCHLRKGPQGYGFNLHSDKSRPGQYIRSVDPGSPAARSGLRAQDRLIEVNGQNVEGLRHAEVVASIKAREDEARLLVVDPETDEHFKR

FRMPD2_3, Q68DX3 = molecular target: FRMPD2_3, Q68DX3
FRMPD2_3, Q68DX3, sequence (Q68DX3 1073-1166): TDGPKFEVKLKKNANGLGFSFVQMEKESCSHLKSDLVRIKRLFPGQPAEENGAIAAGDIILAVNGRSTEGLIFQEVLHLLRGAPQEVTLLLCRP

LAP2, Q96RT1 = molecular target: LAP2, Q96RT1
LAP2, Q96RT1, sequence (Q96RT1 other isoform, or with tags, fused parts or gaps): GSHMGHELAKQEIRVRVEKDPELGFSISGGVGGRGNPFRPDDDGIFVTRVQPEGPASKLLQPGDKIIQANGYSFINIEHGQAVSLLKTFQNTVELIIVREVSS

DLG4_1, P78352 = molecular target: DLG4_1, P78352
DLG4_1, P78352, sequence (P78352 62-152): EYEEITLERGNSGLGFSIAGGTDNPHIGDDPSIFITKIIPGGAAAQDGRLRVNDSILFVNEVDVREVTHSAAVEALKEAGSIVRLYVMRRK

MPDZ_10, O75970 = molecular target: T2, MPDZ_10, O75970
T2 sequence (O75970 1624-1722, limits assumed, looked up): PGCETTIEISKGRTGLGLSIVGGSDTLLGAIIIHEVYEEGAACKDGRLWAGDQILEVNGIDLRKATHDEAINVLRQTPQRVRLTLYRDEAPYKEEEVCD

PARD3_3, Q8TEW0 = molecular target: PARD3_3, Q8TEW0
PARD3_3, Q8TEW0, sequence (Q8TEW0 582-685): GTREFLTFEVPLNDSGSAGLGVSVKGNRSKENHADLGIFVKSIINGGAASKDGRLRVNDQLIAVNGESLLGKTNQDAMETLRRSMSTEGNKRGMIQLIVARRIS

PDZRN3_1, Q9UPQ7 = molecular target: T3, PDZRN3_1, Q9UPQ7
T3 sequence (Q9UPQ7 244-349, limits assumed, looked up): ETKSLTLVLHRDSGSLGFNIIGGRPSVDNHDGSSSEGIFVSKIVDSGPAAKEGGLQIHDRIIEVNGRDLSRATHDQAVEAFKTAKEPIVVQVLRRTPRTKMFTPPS

HTRA2, O43464 = molecular target: HTRA2, O43464
HTRA2, O43464, sequence (O43464 355-458): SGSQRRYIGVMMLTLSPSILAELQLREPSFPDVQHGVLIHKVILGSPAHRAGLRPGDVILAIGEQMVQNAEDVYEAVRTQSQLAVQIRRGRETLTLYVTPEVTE

MAGI1_1, Q96QZ7 = molecular target: MAGI1_1, Q96QZ7
MAGI1_1, Q96QZ7, sequence (Q96QZ7 1-106): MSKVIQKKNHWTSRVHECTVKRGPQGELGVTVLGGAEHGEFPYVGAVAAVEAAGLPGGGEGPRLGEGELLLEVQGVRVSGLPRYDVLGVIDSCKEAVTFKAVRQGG

NHERF3_1, Q5T2W1 = molecular target: T4, NHERF3_1, Q5T2W1
T4 sequence (Q5T2W1 4-100, limits assumed, looked up): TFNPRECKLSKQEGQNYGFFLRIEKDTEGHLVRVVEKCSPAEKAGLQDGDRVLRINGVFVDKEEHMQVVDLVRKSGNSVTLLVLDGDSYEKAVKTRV

LNX1_2, Q8TBB1 = molecular target: LNX1_2, Q8TBB1
LNX1_2, Q8TBB1, sequence (Q8TBB1 371-470): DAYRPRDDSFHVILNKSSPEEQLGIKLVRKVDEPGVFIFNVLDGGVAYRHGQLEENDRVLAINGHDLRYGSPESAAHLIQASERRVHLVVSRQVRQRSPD

APBA2_2, Q99767 = molecular target: T5, APBA2_2, Q99767
T5 sequence (Q99767 654-744, limits assumed, looked up): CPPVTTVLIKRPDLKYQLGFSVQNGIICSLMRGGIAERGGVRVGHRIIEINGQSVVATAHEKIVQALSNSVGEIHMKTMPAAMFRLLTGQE

GRIP1_2, Q9Y3R0 = molecular target: T6, GRIP1_2, Q9Y3R0
T6 sequence (Q9Y3R0 145-248, limits assumed, looked up): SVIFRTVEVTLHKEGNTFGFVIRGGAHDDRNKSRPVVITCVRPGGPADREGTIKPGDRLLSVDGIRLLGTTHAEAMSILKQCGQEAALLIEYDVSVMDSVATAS

Inadl_2, Q8NI35 = molecular target: Inadl_2, Q8NI35
Inadl_2, Q8NI35, sequence (Q8NI35 238-335): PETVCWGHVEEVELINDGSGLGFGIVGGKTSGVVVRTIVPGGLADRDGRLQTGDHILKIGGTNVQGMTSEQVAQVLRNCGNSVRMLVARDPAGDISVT

GRIP2_5, Q9C0E4 = molecular target: GRIP2_5, Q9C0E4
GRIP2_5, Q9C0E4, sequence (Q9C0E4 544-642): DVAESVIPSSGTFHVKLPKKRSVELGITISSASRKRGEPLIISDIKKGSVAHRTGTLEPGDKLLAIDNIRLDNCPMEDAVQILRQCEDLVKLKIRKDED

PTPN13_1, Q12923 = molecular target: T7, PTPN13_1, Q12923
T7 sequence (Q12923 1088-1188, limits assumed, looked up): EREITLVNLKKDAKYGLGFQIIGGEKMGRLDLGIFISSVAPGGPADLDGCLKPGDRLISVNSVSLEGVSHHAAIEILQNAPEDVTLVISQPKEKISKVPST

TIAM2, Q8IVF5 = molecular target: T8, TIAM2, Q8IVF5
T8 sequence (Q8IVF5 885-986, limits assumed, looked up): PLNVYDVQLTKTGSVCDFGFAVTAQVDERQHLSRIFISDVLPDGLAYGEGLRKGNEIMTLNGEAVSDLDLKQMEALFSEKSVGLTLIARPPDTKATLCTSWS

GRIP2_3, Q9C0E4 = molecular target: GRIP2_3, Q9C0E4
GRIP2_3, Q9C0E4, sequence (Q9C0E4 238-339): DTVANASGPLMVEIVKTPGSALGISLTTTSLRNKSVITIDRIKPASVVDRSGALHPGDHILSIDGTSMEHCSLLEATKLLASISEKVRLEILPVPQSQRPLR

DFNB31_1, Q9P202 = molecular target: T9, DFNB31_1, Q9P202
T9 sequence (Q9P202 135-233, limits assumed, looked up): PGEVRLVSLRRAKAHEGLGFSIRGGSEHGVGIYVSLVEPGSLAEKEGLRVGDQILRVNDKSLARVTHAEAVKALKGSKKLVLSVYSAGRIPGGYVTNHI

SNTG2, Q9NY99 = molecular target: T10, SNTG2, Q9NY99
T10 sequence (Q9NY99 68-166, limits assumed, looked up): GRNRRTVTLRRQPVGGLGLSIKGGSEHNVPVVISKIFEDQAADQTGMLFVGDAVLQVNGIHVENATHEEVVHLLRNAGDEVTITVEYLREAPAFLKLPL

GORASP1, Q9BQQ3 = molecular target: GORASP1, Q9BQQ3
GORASP1, Q9BQQ3, sequence (Q9BQQ3 1-208): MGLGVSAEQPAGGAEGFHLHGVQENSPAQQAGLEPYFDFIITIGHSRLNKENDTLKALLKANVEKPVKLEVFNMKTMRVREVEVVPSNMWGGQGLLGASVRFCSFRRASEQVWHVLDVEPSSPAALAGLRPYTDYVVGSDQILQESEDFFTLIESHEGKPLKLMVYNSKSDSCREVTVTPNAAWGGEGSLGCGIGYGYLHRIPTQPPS

PARD3B_1, Q8TEW8 = molecular target: T11, PARD3B_1, Q8TEW8
T11 sequence (Q8TEW8 196-299, limits assumed, looked up): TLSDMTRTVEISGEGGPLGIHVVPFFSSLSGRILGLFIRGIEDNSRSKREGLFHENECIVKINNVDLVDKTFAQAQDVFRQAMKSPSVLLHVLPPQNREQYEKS

GRIP2_4, Q9C0E4 = molecular target: GRIP2_4, Q9C0E4
GRIP2_4, Q9C0E4, sequence (Q9C0E4 446-548): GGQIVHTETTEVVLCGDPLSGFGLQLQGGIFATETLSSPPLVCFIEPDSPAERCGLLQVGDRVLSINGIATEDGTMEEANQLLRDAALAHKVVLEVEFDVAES

GRIP2_6, Q9C0E4 = molecular target: GRIP2_6, Q9C0E4
GRIP2_6, Q9C0E4, sequence (Q9C0E4 648-740): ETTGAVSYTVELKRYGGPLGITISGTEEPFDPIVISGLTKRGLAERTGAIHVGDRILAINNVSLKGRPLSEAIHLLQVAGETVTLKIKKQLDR

[1] = plain residues with an end cap or a label only (N-terminal biotin on a linker: ado-ado)
[2] = modified: phospho on T at position -2 from the C-terminal residue

B1: SORCS3, Q9UPU3 (peptide)
chain: TKEIPNCTSV
For B1, the pKd (APBA2_1, Q99767; [1]) was “below the threshold”, the pKd (LNX1_1, Q8TBB1; [1]) was 3.75 and the pKd (FRMPD3, Q5JV73; [1]) was “below the threshold”. The pKd (NHERF2_2, Q15599; [1]) was 3.94, the pKd (FRMPD2_3, Q68DX3; [1]) was “below the threshold” and the pKd (LAP2, Q96RT1; [1]) was 3.98. The pKd (DLG4_1, P78352; [1]) was 4.26, the pKd (MPDZ_10, O75970; [1]) was 3.83 and the pKd (PARD3_3, Q8TEW0; [1]) was “below the threshold”. For the same binder, the pKd (PDZRN3_1, Q9UPQ7; [1]) was 3.92, the pKd (HTRA2, O43464; [1]) was “below the threshold” and the pKd (MAGI1_1, Q96QZ7; [1]) was “below the threshold”. The pKd (NHERF3_1, Q5T2W1; [1]) was 4.36, the pKd (LNX1_2, Q8TBB1; [1]) was 3.78 and the pKd (APBA2_2, Q99767; [1]) was “below the threshold”. The pKd (GRIP1_2, Q9Y3R0; [1]) was “below the threshold”, the pKd (Inadl_2, Q8NI35; [1]) was “below the threshold” and the pKd (GRIP2_5, Q9C0E4; [1]) was “below the threshold”. For the same binder, the pKd (PTPN13_1, Q12923; [1]) was “below the threshold”, the pKd (TIAM2, Q8IVF5; [1]) was “below the threshold” and the pKd (GRIP2_3, Q9C0E4; [1]) was “below the threshold”. The pKd (DFNB31_1, Q9P202; [1]) was 4.06, the pKd (SNTG2, Q9NY99; [1]) was 3.84 and the pKd (GORASP1, Q9BQQ3; [1]) was “below the threshold”. For the same binder, the pKd (PARD3B_1, Q8TEW8; [1]) was “below the threshold”, the pKd (GRIP2_4, Q9C0E4; [1]) was “below the threshold” and the pKd (GRIP2_6, Q9C0E4; [1]) was “below the threshold”.

B2: TMEM178A, Q8NBL3 (peptide)
chain: QLKSGRDSTV
In the case of B2, the pKd (APBA2_1, Q99767; [1]) is reported as 3.52, the pKd (LNX1_1, Q8TBB1; [1]) is reported as “below the threshold” and the pKd (FRMPD3, Q5JV73; [1]) is reported as “below the threshold”. The pKd (NHERF2_2, Q15599; [1]) was 3.55, the pKd (FRMPD2_3, Q68DX3; [1]) was “below the threshold” and the pKd (LAP2, Q96RT1; [1]) was 3.63. It also gave a pKd (DLG4_1, P78352; [1]) of 4.34, a pKd (MPDZ_10, O75970; [1]) of 3.63 and a pKd (PARD3_3, Q8TEW0; [1]) of 3.5. The pKd (PDZRN3_1, Q9UPQ7; [1]) was 3.74, the pKd (HTRA2, O43464; [1]) was 3.65 and the pKd (MAGI1_1, Q96QZ7; [1]) was “below the threshold”. For the same binder, the pKd (NHERF3_1, Q5T2W1; [1]) was “below the threshold”, the pKd (LNX1_2, Q8TBB1; [1]) was 3.84 and the pKd (APBA2_2, Q99767; [1]) was “below the threshold”. The pKd (GRIP1_2, Q9Y3R0; [1]) was “below the threshold”, the pKd (Inadl_2, Q8NI35; [1]) was “below the threshold” and the pKd (GRIP2_5, Q9C0E4; [1]) was “below the threshold”. The pKd (PTPN13_1, Q12923; [1]) was 3.57, the pKd (TIAM2, Q8IVF5; [1]) was “below the threshold” and the pKd (GRIP2_3, Q9C0E4; [1]) was 3.51. For the same binder, the pKd (DFNB31_1, Q9P202; [1]) was 3.6, the pKd (SNTG2, Q9NY99; [1]) was 3.77 and the pKd (GORASP1, Q9BQQ3; [1]) was “below the threshold”. For the same binder, the pKd (PARD3B_1, Q8TEW8; [1]) was “below the threshold”, the pKd (GRIP2_4, Q9C0E4; [1]) was “below the threshold” and the pKd (GRIP2_6, Q9C0E4; [1]) was 3.49.

B3: HPV33-E6_-2P, P06427 (peptide)
chain: SRSRRRETAL
With B3 the pKd (APBA2_1, Q99767; [2]) was “below the threshold”, the pKd (LNX1_1, Q8TBB1; [2]) was “below the threshold” and the pKd (FRMPD3, Q5JV73; [2]) was “below the threshold”. The pKd (NHERF2_2, Q15599; [2]) was “below the threshold”, the pKd (FRMPD2_3, Q68DX3; [2]) was “below the threshold” and the pKd (LAP2, Q96RT1; [2]) was “below the threshold”. For the same binder, the pKd (DLG4_1, P78352; [2]) was “below the threshold”, the pKd (MPDZ_10, O75970; [2]) was “below the threshold” and the pKd (PARD3_3, Q8TEW0; [2]) was “below the threshold”. The pKd (PDZRN3_1, Q9UPQ7; [2]) was “below the threshold”, the pKd (HTRA2, O43464; [2]) was “below the threshold” and the pKd (MAGI1_1, Q96QZ7; [2]) was “below the threshold”. The pKd (NHERF3_1, Q5T2W1; [2]) was “below the threshold”, the pKd (LNX1_2, Q8TBB1; [2]) was “below the threshold” and the pKd (APBA2_2, Q99767; [2]) was “below the threshold”. For the same binder, the pKd (GRIP1_2, Q9Y3R0; [2]) was “below the threshold”, the pKd (Inadl_2, Q8NI35; [2]) was “below the threshold” and the pKd (GRIP2_5, Q9C0E4; [2]) was “below the threshold”. For the same binder, the pKd (PTPN13_1, Q12923; [2]) was “below the threshold”, the pKd (TIAM2, Q8IVF5; [2]) was “below the threshold” and the pKd (GRIP2_3, Q9C0E4; [2]) was “below the threshold”. The pKd (DFNB31_1, Q9P202; [2]) was “below the threshold”, the pKd (SNTG2, Q9NY99; [2]) was “below the threshold” and the pKd (GORASP1, Q9BQQ3; [2]) was “below the threshold”. For the same binder, the pKd (PARD3B_1, Q8TEW8; [2]) was “below the threshold”, the pKd (GRIP2_4, Q9C0E4; [2]) was “below the threshold” and the pKd (GRIP2_6, Q9C0E4; [2]) was “below the threshold”.
